According to paper doi:10.1101/2024.01.23.576883 (bioRxiv, 2024):
One block for each binder: values may come before it.

Key:
[1] = molecular target: T1, FUS-mscarlet3, released from MBP-FUS-mscarlet3-His6 by TEV protease (UniProt P35637 1-526); experiment: fluorescence polarisation
T1 sequence: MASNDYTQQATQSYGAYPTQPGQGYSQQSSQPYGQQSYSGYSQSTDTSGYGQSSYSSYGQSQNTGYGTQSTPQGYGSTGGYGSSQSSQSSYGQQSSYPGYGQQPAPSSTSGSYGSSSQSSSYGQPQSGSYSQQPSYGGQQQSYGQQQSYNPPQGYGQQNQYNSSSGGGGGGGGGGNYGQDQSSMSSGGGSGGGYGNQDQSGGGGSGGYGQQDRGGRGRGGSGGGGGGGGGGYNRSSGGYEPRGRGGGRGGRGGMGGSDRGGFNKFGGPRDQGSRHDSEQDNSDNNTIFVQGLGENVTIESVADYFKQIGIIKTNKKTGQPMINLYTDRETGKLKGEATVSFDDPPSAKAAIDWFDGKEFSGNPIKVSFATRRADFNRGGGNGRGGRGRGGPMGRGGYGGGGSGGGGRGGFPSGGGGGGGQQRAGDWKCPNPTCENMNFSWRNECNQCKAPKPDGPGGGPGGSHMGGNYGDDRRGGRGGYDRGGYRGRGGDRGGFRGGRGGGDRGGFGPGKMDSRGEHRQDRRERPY

[2] = molecular target: T2, HspB6-meGFP-His6 (human), O14558; experiment: microfluidic diffusional sizing; details: remark: other sources report otherwise
T2 chain: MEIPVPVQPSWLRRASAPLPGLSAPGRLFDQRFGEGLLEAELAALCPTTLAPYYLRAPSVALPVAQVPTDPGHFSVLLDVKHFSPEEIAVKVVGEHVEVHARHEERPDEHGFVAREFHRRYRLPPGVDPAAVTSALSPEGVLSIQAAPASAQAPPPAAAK

[3] = molecular target: the molecule itself; experiment: microfluidic diffusional sizing

binding result [1]: binds
B1: HspB4-meGFP-His6 (natural protein)
chain: MDVTIQHPWFKRTLGPFYPSRLFDQFFGEGLFEYDLLPFLSSTISPYYRQSLFRTVLDSGISEVRSDRDKFVIFLDVKHFSPEDLTVKVQDDFVEIHGKHNERQDDHGYISREFHRRYRLPSNVDQSALSCSLSADGMLTFCGPKIQTGLDATHAERAIPVSREEKPTSAPSS

stoichiometry N [2]: 2
B2: HspB6-meGFP-His6, O14558 1-160 (natural protein)
chain: T2 chain

B3: HspB5-meGFP-His6 (natural protein)
chain: MDIAIHHPWIRRPFFPFHSPSRLFDQFFGEHLLESDLFPTSTSLSPFYLRPPSFLRAPSWFDTGLSEMRLEKDRFSVNLDVKHFSPEELKVKVLGDVIEVHGKHEERQDEHGFISREFHRKYRIPADVDPLTITSSLSSDGVLTVNGPRKQVSGPERTIPITREEKPAVTAAPKK
binding result [3]: binds
